# Reference: US20170232076A1
# B1: Naglu-SapDC fusion protein (produced in HT-1080 cells) (enzyme)
# chain: DEAREAAAVRALVARLLGPGPAADFSVSVERALAAKPGLDTYSLGGGGAARVRVRGSTGVAAAAGLHRYLRDFCGCHVAWSGSQLRLPRPLPAVPGELTEATPNRYRYYQNVCTQSYSFVWWDWARWEREIDWMALNGINLALAWSGQEAIWQRVYLALGLTQAEINEFFTGPAFLAWGRMGNLHTWDGPLPPSWHIKQLYLQHRVLDQMRSFGMTPVLPAFAGHVPEAVTRVFPQVNVTKMGSWGHFNCSYSCSFLLAPEDPIFPIIGSLFLRELIKEFGTDHIYGADTFNEMQPPSSEPSYLAAATTAVYEAMTAVDTEAVWLLQGWLFQHQPQFWGPAQIRAVLGAVPRGRLLVLDLFAESQPVYTRTASFQGQPFIWCMLHNFGGNHGLFGALEAVNGGPEAARLFPNSTMVGTGMAPEGISQNEVVYSLMAELGWRKDPVPDLAAWVTSFAARRYGVSHPDAGAAWRLLLRSVYNCSGEACRGHNRSPLVRRPSLQMNTSIWYNRSDVFEAWRLLLTSAPSLATSPAFRYDLLDLTRQAVQELVSLYYEEARSAYLSKELASLLRAGGVLAYELLPALDEVLASDSRFLLGSWLEQARAAAVSEAEADFYEQNSRYQLTLWGPEGNILDYANKQLAGLVANYYTPRWRLFLEALVDSVAQGIPFQQHQFDKNVFQLEQAFVLSKQRYPSQPRGDTVDLAKKIFLKYYPRWVAGSWGAPGGGGGAAAAAGGGGGGAPGGGGGAAAAAGGGGGGAPGGGGGAAAAAGGGGGGAPDGGFCEVCKKLVGYLDRNLEKNSTKQEILAALEKGCSFLPDPYQKQCDQFVAEYEPVLIEILVEVMDPSFVCLKIGACPSAHKPLLGTEKCIWGPSYWCQNTETAAQCNAVEHCKRHVWN
# modifications: N-linked glycosylation site in the SapDC part marked (N); M6P content 0.75 mol/mol (M6P/Protein)
# B2: Naglu-CREG fusion protein (produced in HT-1080 cells) (enzyme)
# chain: DEAREAAAVRALVARLLGPGPAADFSVSVERALAAKPGLDTYSLGGGGAARVRVRGSTGVAAAAGLHRYLRDFCGCHVAWSGSQLRLPRPLPAVPGELTEATPNRYRYYQNVCTQSYSFVWWDWARWEREIDWMALNGINLALAWSGQEAIWQRVYLALGLTQAEINEFFTGPAFLAWGRMGNLHTWDGPLPPSWHIKQLYLQHRVLDQMRSFGMTPVLPAFAGHVPEAVTRVFPQVNVTKMGSWGHFNCSYSCSFLLAPEDPIFPIIGSLFLRELIKEFGTDHIYGADTFNEMQPPSSEPSYLAAATTAVYEAMTAVDTEAVWLLQGWLFQHQPQFWGPAQIRAVLGAVPRGRLLVLDLFAESQPVYTRTASFQGQPFIWCMLHNFGGNHGLFGALEAVNGGPEAARLFPNSTMVGTGMAPEGISQNEVVYSLMAELGWRKDPVPDLAAWVTSFAARRYGVSHPDAGAAWRLLLRSVYNCSGEACRGHNRSPLVRRPSLQMNTSIWYNRSDVFEAWRLLLTSAPSLATSPAFRYDLLDLTRQAVQELVSLYYEEARSAYLSKELASLLRAGGVLAYELLPALDEVLASDSRFLLGSWLEQARAAAVSEAEADFYEQNSRYQLTLWGPEGNILDYANKQLAGLVANYYTPRWRLFLEALVDSVAQGIPFQQHQFDKNVFQLEQAFVLSKQRYPSQPRGDTVDLAKKIFLKYYPRWVAGSWGAPGGGGGAAAAAGGGGGGAPGGGGGAAAAAGGGGGGAPGGGGGAAAAAGGGGGGAPRGGRDHGDWDEASRLPPLPPREDAARVARFVTHVSDWGALATISTLEAVRGRPFADVLSLSDGPPGAGSGVPYFYLSPLQLSVSNLQENPYATLTMTLAQTNFCKKHGFPLCVHIMLSGTVTKVNETEMDIAKHSLFIRHPEMKTWPSSHNWFFAKLNITNIWVLDYFGGPKIVTPEEYYNVTVQ
# modifications: N-linked glycosylation sites in the CREG part marked (N); binding is M6P-dependent
# B3: Naglu-SapDC fusion protein produced in HT-1080 cells overexpressing GNPT (enzyme)
# chain: B1 chain
# modifications: increased M6P on N-linked glycans; M6P content 1.84 mol/mol (M6P/Protein)
# B4: Naglu-CREG fusion protein produced in HT-1080 cells overexpressing GNPT (enzyme)
# chain: B2 chain
# modifications: increased M6P on N-linked glycans (co-expression with GNPT)
# Tests used:
# [1] = target: cation-independent mannose-6-phosphate receptor (CI-M6PR), as used in the in vitro receptor binding assay (ELISA); experiment: ELISA, CI-M6PR binding, detection with antibody to human Naglu
# [2] = target: cation-independent mannose-6-phosphate receptor (CI-M6PR), as used in the in vitro receptor binding assay (ELISA); experiment: in vitro CI-M6PR binding assay
# [3] = target: cation-independent mannose-6-phosphate receptor (CI-M6PR) on cells overexpressing CI-M6PR; experiment: cellular uptake assay on cells overexpressing CI-M6PR, intracellular Naglu activity read-out
Kd [1] [nM],Kd [2] [nM],Kd [3] [nM],fold higher affinity than Naglu-SapDC produced in cells expressing Naglu-SapDC alone [3] [fold],Binder
5.5,2.9,209,–,B1
1.25,2.5,–,–,B2
–,0.23,14.9,14,B3
–,0.41,–,–,B4
